The record followed here is patent US20040071698A1 (UAB RESEARCH FOUNDATION, published 2004).

Test [1] has as its target T1, wild-type EGFR on U87MG.wtEGFR human glioma cells (UniProt P00533 25-1210, limits assumed).
T1 construct: whole, on cells; Estimated at >3x10^6 EGFR per cell; also called native full length epidermal growth factor receptor
As to the kind of experiment: FACS on U87MG.wtEGFR cells, culture medium, anti-alpha tubulin and FITC anti-rat detection. As to the method: (§1) The cells, U87MG, U87MG.wtEGFR and U87MG.AEGFR were incubated with culture medium, culture medium from pSECTAG or p6.34 for 30 min at 4° C. The cells were washed, then incubated with rat anti-alpha tubulin followed by FITC-labeled anti-rat antibody.
(§2) The EGFR has three major domains, intracellular, transmembrane and extracellular, any of which may serve as the binding site for clone p6.34. To examine whether the scFv binds to the extracellular portion of the receptor, a FACS analysis was used for this determination. For this assay, culture medium collected from U87MG.pSECTAG or U87MG.pSECTAG.6.34.A8 was allowed to interact with the cell surface of 3 different human glioma sublines; U87MG, U87MG.wtEGFR and U87MG.AEGFR (provided by Dr. H-J. Su Huang, UCSD).

Test [2] deals with T2, truncated EGFR, EGFRvIII, on U87MG.deltaEGFR human glioma cells (UniProt P00533 25-1210).
T2 construct: whole, on cells; also called U87MG.AEGFR; truncated and/or mutated epidermal growth factor receptor
Description: FACS on U87MG.deltaEGFR cells, culture medium, anti-alpha tubulin and FITC anti-rat detection. As for the experimental part: as §1, §2

B1: secretory anti-EGFR scFv clone 6 secreted by stably transfected U87MG.6.34.A8 cells (clone p6.34) (scFv, not shown: small tags and cut ends)
scFv: EVQLVESGGGLVQPGGSLRLSCSASGFTFSSYAMHWVRQAPGKGLEYVSAISSNGGSTYYADSVKGRFTISRDNSKNTLYLQMSSLRAEDTAVYYCVKDVGGSSWYWADYFDYWGQGTLVTVSSGSASAPKLEEGEFSEARVQSVLTQPPSLSVSPGQTASITCSGDKLGDKYASWYQQKPGQSPVLVIYQDRKRPSGIPERFSGSNSGNTATLTISGTQAMDEADYYCQAWDSSTPYVFGTGTKVTVLGQPKANPTVTLFPPSSAAA
notes: The scFv insert was moved from pSEX81 as a Bpu1102I/NotI fragment behind an Ig kappa leader; also called scFv p6.34; clone p6.34 scFv
With B1, the binding result in test [1] and in test [2] was “binds” throughout.
